In PMC11141937 (JCI Insight, 2024):

Assays:
[1] = target: SARS-CoV-2 Delta S protein ectodomain (SARS-CoV-2 Delta (B.1.617.2), strain); test: BLI; conditions: both partners purified
[2] = target: SARS-CoV-2 Omicron BA.2 S protein ectodomain (SARS-CoV-2 Omicron BA.2, strain); test: BLI; conditions: both partners purified
[3] = target: SARS-CoV-2 Delta S protein on S-293T cells (SARS-CoV-2 Delta (B.1.617.2), strain); test: flow cytometry on cells; conditions: one partner purified
[4] = target: SARS-CoV-2 Omicron BA.1 S protein on S-293T cells (SARS-CoV-2 Omicron BA.1, strain); test: flow cytometry on cells; conditions: one partner purified
[5] = target: SARS-CoV-2 Omicron BA.2 S protein on S-293T cells (SARS-CoV-2 Omicron BA.2, strain); test: flow cytometry on cells; conditions: one partner purified
[6] = target: SARS-CoV-2 Omicron BA.4/5 S protein on S-293T cells (SARS-CoV-2 Omicron BA.4/5, strain); test: flow cytometry on cells; conditions: one partner purified

Measured: binding result

B1: O5C2 mAb (antibody, V domains shown)
VH: EVQLVESGGGLIQPGGSLRLSCAASGIIVSRNYMSWVRQAPGKGLEWVSILYAGGSSFYAEPVQGRFTVSRDNSKNTLFLEMNSLRVEDTAVYYCARDLQWGIDIWGQGAMVTVSS
VL: DIQMTQTPPSLSASVGDRVSISCRASQSTGSWLAWYQQKPGKAPKLLIYKTSSLESGVPSRFSGSGSGTEFTLTISSLQPDDVATYYCQHYDTYSSTFGQGTKVEIK
binds: all assays above
